Assay results taken from patent publication US9433687B2, “Anti-Notch3 antibodies and antibody-drug conjugates” (Pfizer Inc., priority 2012, dated 2016).

Key:
human Notch2 NRR-Fc = molecular target: T1, human Notch2 NRR-Fc (Homo sapiens, UniProt Q04721); assay: Binding to Notch2 NRR-Fc; conditions: N/B = non-binding
T1 construct: Expression constructs encoding human Notch1 and Notch2 NRR regions, fused with human IgG1 Fc fragments; made in house; host or cells: CHO-PACE cells
T1 sequence (Q04721 1425-1677 limits assumed): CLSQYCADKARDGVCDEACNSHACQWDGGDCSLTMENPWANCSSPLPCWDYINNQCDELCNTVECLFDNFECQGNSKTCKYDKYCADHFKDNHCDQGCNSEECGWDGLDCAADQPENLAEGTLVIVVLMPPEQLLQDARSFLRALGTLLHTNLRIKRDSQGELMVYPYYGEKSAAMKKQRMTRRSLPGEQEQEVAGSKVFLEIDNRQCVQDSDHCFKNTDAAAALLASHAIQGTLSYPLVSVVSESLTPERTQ
From the text: (§1) Other members of the Notch receptor family play important roles in biological processes. For example, a Notch1 or Notch2 deficiency leads to embryonic death in mouse models. In contrast, a Notch4 deficiency results in no detectable phenotype in mouse models. The closest homologues of the Notch3 NRR region are Notch1 and Notch2 (˜50% homology), and Notch4 is a more distant homologue (˜30% homology). Cross-reactivity of anti-Notch3 antibodies to other members of the Notch family, especially Notch1 and 2, may lead to undesired effects in patients. Therefore, the potential cross-reactivity of r28 and hu28, along with r75 and hu75 to other Notch family members were assessed.
(§2) Expression constructs encoding human Notch1 and Notch2 NRR regions, fused with human IgG1 Fc fragments were stably introduced into CHO-PACE cells. Conditioned media from these cells expressing NRR-Fc fusions were collected. Human Notch2 NRR-Fc and human Notch1 NRR-Fc were purified by protein A affinity followed by size exclusion chromatography (SEC). Purified preparations were dialysed into TBS with 1 mM CaCl2 and analyzed on analytical SEC to be >99% in purity.

human Notch1 NRR-Fc = molecular target: T2, human Notch1 NRR-Fc (Homo sapiens, UniProt P46531); assay: Binding to Notch1 NRR-Fc; conditions: N/B = non-binding
T2 construct: Expression constructs encoding human Notch1 and Notch2 NRR regions, fused with human IgG1 Fc fragments; made in house; host or cells: CHO-PACE cells
T2 sequence (P46531 1446-1733 limits assumed): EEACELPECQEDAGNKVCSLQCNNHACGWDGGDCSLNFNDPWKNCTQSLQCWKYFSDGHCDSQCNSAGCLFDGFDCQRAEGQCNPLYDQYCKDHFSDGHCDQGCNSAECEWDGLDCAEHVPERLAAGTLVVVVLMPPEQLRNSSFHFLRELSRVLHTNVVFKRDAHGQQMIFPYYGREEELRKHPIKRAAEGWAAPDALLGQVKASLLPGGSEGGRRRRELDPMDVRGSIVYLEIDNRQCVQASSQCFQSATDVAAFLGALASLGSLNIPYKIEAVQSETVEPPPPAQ
From the text: as §1, §2

[1] = Thermal stability by differential scanning calorimetry (DSC); assay type: physicochemical; conditions: 0.3 mg/ml in PBS
Procedure: There is a positive correlation between the thermal stability of a protein or protein domain with the overall stability of the protein or protein domain. A higher melting point of a protein or protein domain often provides improved manufacturability and longer shelf life. Differential scanning calorimetry (DSC) was used to assess the thermal stability of hu28 and hu75 versus ch28 and ch75, respectively. Protein samples were diluted in PBS to 0.3 mg/ml in a volume of 250 μl. The corresponding formulation buffer blank was used for the reference sample. Both samples were thoroughly degassed using a MicroCal ThermoVac Sample Degassing and Thermostat (Microcal, Inc., Northampton, Mass.) set to 8° C. Samples were dispensed into the appropriate cells of a MicroCal VP-DSC Capillary Cell MicroCalorimter (MicroCal, Inc., Northampton, Mass.). Samples were equilibrated for 4 minutes at 15° C. and then scanned up to 100° C. at a rate of 100° C. per hour. A filtering period of 20 seconds was selected. Raw data was baseline corrected and the protein concentration was normalized. Origin Software (OriginLab Corporation, Northampton, Mass.) was used to fit the data to an MN2-State Model with an appropriate number of transitions.

[2] = molecular target: T3, human Notch3 NRR recombinant protein (Homo sapiens, UniProt Q9UM47); assay: Surface plasmon resonance (Biacore) kinetic analysis; assay type: binding; conditions: antibody captured; 1:1 Langmuir model
T3 construct: made in house
T3 sequence (Q9UM47 with tags, fused parts or gaps): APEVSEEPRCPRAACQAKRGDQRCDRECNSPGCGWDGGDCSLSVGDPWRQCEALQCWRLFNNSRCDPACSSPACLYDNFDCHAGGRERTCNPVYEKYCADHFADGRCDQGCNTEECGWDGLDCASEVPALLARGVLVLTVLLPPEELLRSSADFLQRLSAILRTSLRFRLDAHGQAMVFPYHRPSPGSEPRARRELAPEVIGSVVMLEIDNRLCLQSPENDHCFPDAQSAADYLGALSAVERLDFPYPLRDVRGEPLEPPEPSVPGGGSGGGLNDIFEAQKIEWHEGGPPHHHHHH
Procedure: The kinetic constants of the anti-Notch3 NRR interactions were determined by surface plasmon resonance (Biacore® T100, Biacore Inc., Piscataway, N.J.). Flow cells of a CM5 chip were immobilized with approximately 10,000 response units (RU) of anti-human IgG-Fc (Biacore®) in 10 mM Glycine, pH 5.0 at 10 μl/min for 600 seconds. 10 μg/ml of anti-Notch3 antibodies ch28 and hu28, and ch75 and hu75 were diluted in TBS with 1 mM CaCl2 were captured at 10 μl/min. Association of four concentrations of human Notch3 NRR recombinant protein (from 3.7-100 nM) and a zero concentration (running buffer) at 100 μl/min were recorded for 3 minutes in TBS with 1 mM CaCl2. Dissociation of the complexes was measured for 10 minutes. The surface of the chip was regenerated by injecting 3M MgCl2 with 3 mM EGTA for 60 seconds at 10 μl/min. Curves obtained after subtraction of the reference and buffer signals were fitted to a 1:1 Langmuir binding model with Biacore® T100 Evaluation Software (Biacore®).

HCC2429 (lung cancer) = assay: In vitro cytotoxicity (MTS), HCC2429; assay type: cell-based, human; conditions: Table 13; four days; LP = lacked potency
Procedure: (§3) The effects of anti-Notch3 ADCs were assessed on 1) cell lines endogenously expressing Notch3 protein: HCC2429 (lung cancer), OVCAR3 (ovarian cancer) and MDA-MB-468 (breast cancer), 2) cell lines engineered to over-express full length human Notch3 protein: MDA-MB-468/hNotch3 and U2OS/hNotch3, and 3) a negative control cell line (SW900) using an MTS cellular viability indicator (Promega, Madison, Wis.). These cell lines were cultured with increasing concentrations of anti-Notch3 ADCs comprising rat-human chimeric anti-Notch3 antibodies, ch28 and ch75, and humanized anti-Notch3 antibodies, hu28 and hu75, conjugated to various linker-payload combinations of the present invention. As a specificity control for the anti-Notch3-ADCs, non-targeted control-ADCs (huNeg8.8-ADCs or ch2H6-ADCs) were also tested on the same cell lines. After four days, viability of each culture was assessed. IC50 values were calculated by logistic non-linear regression, model #203 with XL fit v4.2 (IDBS, Guildford, Surry, UK) and presented as ng Ab/mL. The drug antibody ratio (DAR) is also provided.
(§4) This process generated the anti-Notch3 cysteine mutant ADCs: hu28-(L443C)-vc0101 and hu28-(L443C/κK183C)-vc0101. The activity of the anti-Notch3 cysteine mutant ADCs were assessed on cell lines endogenously expressing Notch3 protein: HCC2429 (lung cancer) and OVCAR3 (ovarian cancer) using an MTS cellular viability indicator as described in previous Examples.

MDA-MB-468/hNotch3 = molecular target: T4, MDA-MB-468/hNotch3 (Homo sapiens, UniProt Q9UM47); assay: In vitro cytotoxicity (MTS), MDA-MB-468/hNotch3; assay type: cell-based; conditions: Table 13; four days; LP = lacked potency
T4 construct: cell lines engineered to over-express full length human Notch3 protein: MDA-MB-468/hNotch3 and U2OS/hNotch3; expressed in transfected cells; host or cells: MDA-MB-468
Procedure: as §3

[3] = system: MDA-MB-468 (breast cancer); assay: In vitro cytotoxicity (MTS), MDA-MB-468; assay type: cell-based, human; conditions: Table 13; four days; LP = lacked potency
Procedure: as §3

OVCAR3 (ovarian cancer) = assay: In vitro cytotoxicity (MTS), OVCAR3; assay type: cell-based, human; conditions: Table 13; four days; LP = lacked potency
Procedure: as §3, §4

T4 sequence (Q9UM47 40-2321): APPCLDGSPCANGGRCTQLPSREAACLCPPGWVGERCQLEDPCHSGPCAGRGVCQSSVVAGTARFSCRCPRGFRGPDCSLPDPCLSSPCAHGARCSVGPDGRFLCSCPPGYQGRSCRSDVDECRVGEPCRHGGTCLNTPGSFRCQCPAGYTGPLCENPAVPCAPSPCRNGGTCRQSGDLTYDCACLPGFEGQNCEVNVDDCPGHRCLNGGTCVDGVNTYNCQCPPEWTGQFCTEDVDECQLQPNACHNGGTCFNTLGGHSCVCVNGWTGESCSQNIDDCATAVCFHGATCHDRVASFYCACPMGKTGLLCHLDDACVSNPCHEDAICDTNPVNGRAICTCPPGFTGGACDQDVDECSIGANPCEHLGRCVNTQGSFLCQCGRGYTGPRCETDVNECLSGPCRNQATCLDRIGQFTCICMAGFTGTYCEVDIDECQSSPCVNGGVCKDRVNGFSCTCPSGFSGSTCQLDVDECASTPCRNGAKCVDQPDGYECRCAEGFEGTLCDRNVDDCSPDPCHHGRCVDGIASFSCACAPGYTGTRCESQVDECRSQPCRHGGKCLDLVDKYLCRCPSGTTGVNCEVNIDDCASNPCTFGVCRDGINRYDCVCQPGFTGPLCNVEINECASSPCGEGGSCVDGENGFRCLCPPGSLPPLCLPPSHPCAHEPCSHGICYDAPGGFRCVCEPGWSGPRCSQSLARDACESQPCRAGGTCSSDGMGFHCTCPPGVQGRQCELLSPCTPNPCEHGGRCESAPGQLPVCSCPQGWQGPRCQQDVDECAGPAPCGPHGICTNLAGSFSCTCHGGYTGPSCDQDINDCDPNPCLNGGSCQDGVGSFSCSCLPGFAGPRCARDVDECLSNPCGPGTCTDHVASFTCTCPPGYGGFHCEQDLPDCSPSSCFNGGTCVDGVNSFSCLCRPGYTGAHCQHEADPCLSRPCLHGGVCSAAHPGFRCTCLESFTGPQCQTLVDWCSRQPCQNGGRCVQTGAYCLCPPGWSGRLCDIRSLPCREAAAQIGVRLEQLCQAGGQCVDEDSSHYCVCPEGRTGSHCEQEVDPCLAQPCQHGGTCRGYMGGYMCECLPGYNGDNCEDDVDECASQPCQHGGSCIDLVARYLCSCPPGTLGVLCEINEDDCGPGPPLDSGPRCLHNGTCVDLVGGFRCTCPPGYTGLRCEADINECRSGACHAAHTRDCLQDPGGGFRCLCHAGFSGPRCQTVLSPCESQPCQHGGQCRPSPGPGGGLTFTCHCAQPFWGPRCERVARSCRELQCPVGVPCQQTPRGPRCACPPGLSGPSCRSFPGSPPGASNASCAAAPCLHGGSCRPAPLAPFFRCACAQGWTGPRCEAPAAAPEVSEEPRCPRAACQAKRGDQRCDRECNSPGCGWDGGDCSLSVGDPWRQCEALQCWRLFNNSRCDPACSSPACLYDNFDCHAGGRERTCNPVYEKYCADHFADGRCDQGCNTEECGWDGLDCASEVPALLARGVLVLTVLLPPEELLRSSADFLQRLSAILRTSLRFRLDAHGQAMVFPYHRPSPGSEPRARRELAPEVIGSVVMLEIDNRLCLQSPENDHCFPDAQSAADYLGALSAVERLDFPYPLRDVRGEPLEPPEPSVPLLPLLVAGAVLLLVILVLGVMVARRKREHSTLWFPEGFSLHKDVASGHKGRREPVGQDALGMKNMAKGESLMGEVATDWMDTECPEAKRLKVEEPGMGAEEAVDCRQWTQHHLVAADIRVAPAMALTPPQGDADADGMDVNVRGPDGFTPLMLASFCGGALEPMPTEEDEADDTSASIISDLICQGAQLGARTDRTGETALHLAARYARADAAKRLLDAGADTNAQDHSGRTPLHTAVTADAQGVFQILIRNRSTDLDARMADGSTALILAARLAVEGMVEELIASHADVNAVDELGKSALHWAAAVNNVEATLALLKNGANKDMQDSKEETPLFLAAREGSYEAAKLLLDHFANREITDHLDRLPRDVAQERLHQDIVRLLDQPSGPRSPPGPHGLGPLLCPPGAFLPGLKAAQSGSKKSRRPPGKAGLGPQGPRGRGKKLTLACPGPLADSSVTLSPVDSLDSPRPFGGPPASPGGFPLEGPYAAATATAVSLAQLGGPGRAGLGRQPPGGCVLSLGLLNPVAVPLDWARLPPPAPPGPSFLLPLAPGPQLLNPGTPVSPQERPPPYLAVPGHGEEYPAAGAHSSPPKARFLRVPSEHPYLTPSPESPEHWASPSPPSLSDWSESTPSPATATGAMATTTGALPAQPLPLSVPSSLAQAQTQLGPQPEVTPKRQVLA

B1: r28: parental rat anti-Notch3 antibody clone 28 (VH SEQ ID NO: 5, VL SEQ ID NO: 7) (antibody, V domains shown)
VH: EVQLVESGGGLVQPGRSLTLSCVASGFTFRDYGMTWIRQAPGKGLTWVAYISSGSNYIYYAEAVKGRFTISRDNAKNTLYLQMTSLRSEDTALYFCTRRGPFVLDAWGQGASVTVSS
VL: DIQMTQSPSFLSASVGDRVTINCKASQSINRYLHWFQQKLGEAPKLLIYNANGLQTGIPSRFSGSGSGTDFTLTISSLQSEDVATYFCLQHNTWPDTFGAGTKLELK
Binding to Notch2 NRR-Fc (human Notch2 NRR-Fc): lacked detectable binding

B2: ch28: rat-human chimeric anti-Notch3 antibody 28, rat variable regions fused with human IgG1 and human kappa (antibody, V domains shown)
VH: EVQLVESGGGLVQPGRSLTLSCVASGFTFRDYGMTWIRQAPGKGLTWVAYISSGSNYIYYAEAVKGRFTISRDNAKNTLYLQMTSLRSEDTALYFCTRRGPFVLDAWGQGASVTVSS
VL: DIQMTQSPSFLSASVGDRVTINCKASQSINRYLHWFQQKLGEAPKLLIYNANGLQTGIPSRFSGSGSGTDFTLTISSLQSEDVATYFCLQHNTWPDTFGAGTKLELK
Binding to Notch1 NRR-Fc (human Notch1 NRR-Fc): N/B | Binding to Notch2 NRR-Fc (human Notch2 NRR-Fc): N/B | Tm ± Standard Deviation, CH2 [1]: 70.20 ± 0.05 °C | Tm ± Standard Deviation, CH3 [1]: 84.24 ± 0.07 °C | Tm ± Standard Deviation, Fab [1]: 73.22 ± 0.73 °C | ka [2]: 409000 M⁻¹ s⁻¹ | kd [2]: 0.000249 s⁻¹

B3: r75: parental rat anti-Notch3 antibody clone 75 (VH SEQ ID NO: 9, VL SEQ ID NO: 11) (antibody, V domains shown)
VH: QVKLLQSGAALVKPGASVKMSCKASGYAFTDYWVTWVKQSHGKSLEWIGEISPNSGGTNFNEKFKGKATLTVDKSTSTAYMELSRLTSEDSAIYYCTRGEIRYNWFAYWGQGTLVTVSS
VL: DIQMTQSPSSLSASVGDRVTITCKASQNVGNNIAWYQQKPGKAPKLLIYYASNRYTGVPSRFSGSGYGTDFTLTISSLQPEDFATYYCQRLYNSPFTFGGGTKVEIK
Binding to Notch2 NRR-Fc (human Notch2 NRR-Fc): lacked detectable binding

B4: ch75-vc0101: ch75 conjugated to vc0101 linker-payload (conjugate)
VH: QVKLLQSGAALVKPGASVKMSCKASGYAFTDYWVTWVKQSHGKSLEWIGEISPNSGGTNFNEKFKGKATLTVDKSTSTAYMELSRLTSEDSAIYYCTRGEIRYNWFAYWGQGTLVTVSS
VL: DIQMTQSPSSLSASVGDRVTITCKASQNVGNNIAWYQQKPGKAPKLLIYYASNRYTGVPSRFSGSGYGTDFTLTISSLQPEDFATYYCQRLYNSPFTFGGGTKVEIK
IC50 (ng Ab/mL) ± S.E.M., HCC2429 (HCC2429 (lung cancer)): 2112 ± 826.0 ng Ab/mL | IC50 (ng Ab/mL) ± S.E.M., MDA-MB-468/hNotch3 (MDA-MB-468/hNotch3): 24 ± 4.0 ng Ab/mL | IC50 (ng Ab/mL) ± S.E.M., MDA-MB-468 [3]: 4064 ± 1793.9 ng Ab/mL

B5: ch75-vc6780 (conjugate)
VH: QVKLLQSGAALVKPGASVKMSCKASGYAFTDYWVTWVKQSHGKSLEWIGEISPNSGGTNFNEKFKGKATLTVDKSTSTAYMELSRLTSEDSAIYYCTRGEIRYNWFAYWGQGTLVTVSS
VL: DIQMTQSPSSLSASVGDRVTITCKASQNVGNNIAWYQQKPGKAPKLLIYYASNRYTGVPSRFSGSGYGTDFTLTISSLQPEDFATYYCQRLYNSPFTFGGGTKVEIK
IC50 (ng Ab/mL) ± S.E.M., OVCAR3 (OVCAR3 (ovarian cancer)): 922 ng Ab/mL | IC50 (ng Ab/mL) ± S.E.M., HCC2429 (HCC2429 (lung cancer)): 1004 ± 177.0 ng Ab/mL | IC50 (ng Ab/mL) ± S.E.M., MDA-MB-468/hNotch3 (MDA-MB-468/hNotch3): 21 ± 3.5 ng Ab/mL | IC50 (ng Ab/mL) ± S.E.M., MDA-MB-468 [3]: 6873 ± 4230.0 ng Ab/mL
